# In publication PMC3285596 (PLoS Pathogens, 2012):
# B1: Ebola virus (Zaire) VP24 residues 1-233 (EBOV_(1–233)) (domain or fragment)
# chain: MAKATGRYNLISPKKDLEKGVVLSDLCNFLVSQTIQGWKVYWAGIEFDVTHKGMALLHRLKTNDFAPAWSMTRNLFPHLFQNPNSTIESPLWALRVILAAGIQDQLIDQSLIEPLAGALGLISDWLLTTNTNHFNMRTQRVKEQLSLKMLSLIRSNILKFINKLDALHVVNYNGLLSSIEIGTQNHTIIITRTNMGFLVELQEPDKSAMNRMKPGPAKFSLLHESTLKAFTQG
# Biological target: T1, STAT1_(1–683), truncated, unphosphorylated human STAT1 (human, UniProt P42224 1-683)
# T1 construct: also called unphosphorylated STAT1_(1–683); not shown: HA, C-terminal, kept
# T1 sequence (looked up): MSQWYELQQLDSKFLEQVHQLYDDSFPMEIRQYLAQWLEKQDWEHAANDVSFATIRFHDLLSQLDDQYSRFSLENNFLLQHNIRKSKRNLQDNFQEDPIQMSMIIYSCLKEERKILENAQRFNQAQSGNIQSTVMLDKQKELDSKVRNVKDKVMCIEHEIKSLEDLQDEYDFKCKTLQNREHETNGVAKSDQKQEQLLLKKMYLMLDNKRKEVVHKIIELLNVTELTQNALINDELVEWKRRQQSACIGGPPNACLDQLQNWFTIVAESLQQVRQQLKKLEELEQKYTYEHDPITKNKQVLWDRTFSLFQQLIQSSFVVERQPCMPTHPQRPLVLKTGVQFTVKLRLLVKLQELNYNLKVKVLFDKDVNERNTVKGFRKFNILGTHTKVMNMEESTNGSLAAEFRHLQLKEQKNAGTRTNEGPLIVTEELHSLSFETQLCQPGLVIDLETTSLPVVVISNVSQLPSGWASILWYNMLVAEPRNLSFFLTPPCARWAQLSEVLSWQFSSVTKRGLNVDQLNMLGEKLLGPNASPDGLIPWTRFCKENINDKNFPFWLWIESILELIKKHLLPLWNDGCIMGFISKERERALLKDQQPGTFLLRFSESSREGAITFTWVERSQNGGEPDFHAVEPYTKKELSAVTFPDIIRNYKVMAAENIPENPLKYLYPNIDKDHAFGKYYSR
# Experiment: ELISA
# Conditions: both partners purified
binder,measurement,value
B1,binding result,binds
